This is an account of results in PMC11555115.

For assay [1], the target named is His-tagged linear tetra-ubiquitin chains (TR-FRET with SHARPIN NZF) (UniProt P0CG48). Kind of assay: TR-FRET assay. The conditions noted are these: DMSO; mixed and incubated for 1 h; parent: 100; read off a plot; scale: relative fluorescence intensity.
The target of assay [2] is Sm-di-ubiquitin (GA mutant) (UniProt P0CG48). The assay can be described thus: NanoBiT assay in HEK293T cells. The settings on record: 1 h, transient transfection, cultured 24 h, read off a plot, scale: relative luminescent intensity.

Take GST-tagged SHARPIN NZF T351A; F352A: the percent of parent in assay [1] worked out at 38.
Turning to “Lg-HOIL-1L NZF WT (from UniProt Q9WUB0) TR-AA”, the percent of parent in assay [2] (DMSO, parent: 100) turned out to be 52. The response in assay [2] (FSL0717 10 μM, parent: est. 60) is 37; in assay [2] (FSL0720 10 μM, parent: est. 50), 43.
